Data taken from the Human Domainome abundance scans (Beltran et al. 2025).
± gives the uncertainty stated by the source.

B1: POU domain, class 6, transcription factor 2, residues 609 to 663; numbered along this chain, P78424 (parent)
chain: KRRTSFTPQALEILNAHFEKNTHPSGQEMTEIAEKLNYDREVVRVWFCNKRQALK

Variants of: B1
Assay: abundance fitness (aPCA) (normalised: wild type 0, dead -1); higher = more abundant; growth selection in yeast, the domain comes from the species named
Details: Homo sapiens
For KRRTSFTPQALEILNAHFEKNTHPSGQEMTEIAEKLYYDREVVRVWFCNKRQALK [N37Y], the abundance fitness was 0.127 ± 0.3. With KRRTSFTPQALEILNAHFEKNTHPSGQEMTEIAEKLWYDREVVRVWFCNKRQALK [N37W] the abundance fitness was -0.444 ± 0.1. Work on KRRTSFTPQALEILNAHFEKNTHPSGQEMTEIAEKLRYDREVVRVWFCNKRQALK [N37R] yielded an abundance fitness of -0.063 ± 0.076. In the case of KRRTSFTPQALEILNAHFEKNTHPSGQEMTEIAEKLFYDREVVRVWFCNKRQALK [N37F], the abundance fitness is reported as -0.353 ± 0.13. KRRTSFTPQALEILNAHFEKNTHPSGQEMTEIAEKLAYDREVVRVWFCNKRQALK [N37A] gave an abundance fitness of -0.035 ± 0.089. KRRTSFTPQALEILNAHFEKNTHPSGQEMTEIAEKLKYDREVVRVWFCNKRQALK [N37K] gave an abundance fitness of -0.036 ± 0.11. Variant KRRTSFTPQALEILNAHFEKNTHPSGQEMTEIAEKLLYDREVVRVWFCNKRQALK [N37L] has an abundance fitness of -0.241 ± 0.093. KRRTSFTPQALEILNAHFEKNTHPSGQEMTEIAEKLTYDREVVRVWFCNKRQALK [N37T] showed an abundance fitness of -0.263 ± 0.14. KRRTSFTPQALEILNAHFEKNTHPSGQEMTEIAEKLVYDREVVRVWFCNKRQALK [N37V] showed an abundance fitness of -0.456 ± 0.097. With KRRTSFTPQALEILNAHFEKNTHPSGQEMTEIAEKLQYDREVVRVWFCNKRQALK [N37Q] the abundance fitness was -0.06 ± 0.12. With KRRTSFTPQALEILNAHFEKNTHPSGQEMTEIAEKLGYDREVVRVWFCNKRQALK [N37G] the abundance fitness was 0.081 ± 0.075. Variant KRRTSFTPQALEILNAHFEKNTHPSGQEMTEIAEKLIYDREVVRVWFCNKRQALK [N37I] has an abundance fitness of -0.326 ± 0.22. Work on KRRTSFTPQALEILNAHFEKNTHPSGQEMTEIAEKLSYDREVVRVWFCNKRQALK [N37S] yielded an abundance fitness of -0.046 ± 0.075. In the case of KRRTSFTPQALEILNAHFEKNTHPSGQEMTEIAEKLPYDREVVRVWFCNKRQALK [N37P], the abundance fitness is reported as -0.229 ± 0.13. Work on KRRTSFTPQALEILNAHFEKNTHPSGQEMTEIAEKLEYDREVVRVWFCNKRQALK [N37E] yielded an abundance fitness of -0.075 ± 0.12. KRRTSFTPQALEILNAHFEKNTHPSGQEMTEIAEKLCYDREVVRVWFCNKRQALK [N37C] gave an abundance fitness of -0.252 ± 0.12. KRRTSFTPQALEILNAHFEKNTHPSGQEMTEIAEKLDYDREVVRVWFCNKRQALK [N37D] gave an abundance fitness of -0.042 ± 0.14. For KRRTSFTPQALEILNAHFEKNTHPSGQEMTEIAEKSNYDREVVRVWFCNKRQALK [L36S], the abundance fitness was -0.6 ± 0.21. In the case of KRRTSFTPQALEILNAHFEKNTHPSGQEMTEIAEKVNYDREVVRVWFCNKRQALK [L36V], the abundance fitness is reported as -0.003 ± 0.14. KRRTSFTPQALEILNAHFEKNTHPSGQEMTEIAEKGNYDREVVRVWFCNKRQALK [L36G] gave an abundance fitness of -0.823 ± 0.13. KRRTSFTPQALEILNAHFEKNTHPSGQEMTEIAEKRNYDREVVRVWFCNKRQALK [L36R] showed an abundance fitness of -0.967 ± 0.19. For KRRTSFTPQALEILNAHFEKNTHPSGQEMTEIAEKCNYDREVVRVWFCNKRQALK [L36C], the abundance fitness was -0.073 ± 0.27. Work on KRRTSFTPQALEILNAHFEKNTHPSGQEMTEIAEKMNYDREVVRVWFCNKRQALK [L36M] yielded an abundance fitness of -0.175 ± 0.33. Variant KRRTSFTPQALEILNAHFEKNTHPSGQEMTEIAEKANYDREVVRVWFCNKRQALK [L36A] has an abundance fitness of -0.094 ± 0.18. KRRTSFTPQALEILNAHFEKNTHPSGQEMTEIAEKWNYDREVVRVWFCNKRQALK [L36W] gave an abundance fitness of -0.642 ± 0.16. KRRTSFTPQALEILNAHFEKNTHPSGQEMTEIAETLNYDREVVRVWFCNKRQALK [K35T] gave an abundance fitness of 0.071 ± 0.17. With KRRTSFTPQALEILNAHFEKNTHPSGQEMTEIAEYLNYDREVVRVWFCNKRQALK [K35Y] the abundance fitness was -0.088 ± 0.21. Variant KRRTSFTPQALEILNAHFEKNTHPSGQEMTEIAESLNYDREVVRVWFCNKRQALK [K35S] has an abundance fitness of -0.047 ± 0.091. KRRTSFTPQALEILNAHFEKNTHPSGQEMTEIAEVLNYDREVVRVWFCNKRQALK [K35V] showed an abundance fitness of -0.112 ± 0.1. KRRTSFTPQALEILNAHFEKNTHPSGQEMTEIAERLNYDREVVRVWFCNKRQALK [K35R] showed an abundance fitness of -0.053 ± 0.093. In the case of KRRTSFTPQALEILNAHFEKNTHPSGQEMTEIAEKLNFDREVVRVWFCNKRQALK [Y38F], the abundance fitness is reported as -0.145 ± 0.098. Variant KRRTSFTPQALEILNAHFEKNTHPSGQEMTEIAEKLNKDREVVRVWFCNKRQALK [Y38K] has an abundance fitness of -0.133 ± 0.095. KRRTSFTPQALEILNAHFEKNTHPSGQEMTEIAEKLNADREVVRVWFCNKRQALK [Y38A] gave an abundance fitness of 0.02 ± 0.046. Work on KRRTSFTPQALEILNAHFEKNTHPSGQEMTEIAEKLNIDREVVRVWFCNKRQALK [Y38I] yielded an abundance fitness of 0.027 ± 0.13. In the case of KRRTSFTPQALEILNAHFEKNTHPSGQEMTEIAEKLNGDREVVRVWFCNKRQALK [Y38G], the abundance fitness is reported as -0.2 ± 0.043. With KRRTSFTPQALEILNAHFEKNTHPSGQEMTEIAEKLNWDREVVRVWFCNKRQALK [Y38W] the abundance fitness was -0.071 ± 0.059. KRRTSFTPQALEILNAHFEKNTHPSGQEMTEIAEKLNLDREVVRVWFCNKRQALK [Y38L] gave an abundance fitness of 0.006 ± 0.059. KRRTSFTPQALEILNAHFEKNTHPSGQEMTEIAEKLNMDREVVRVWFCNKRQALK [Y38M] gave an abundance fitness of 0.022 ± 0.062. Work on KRRTSFTPQALEILNAHFEKNTHPSGQEMTEIAEKLNSDREVVRVWFCNKRQALK [Y38S] yielded an abundance fitness of 0.034 ± 0.059. KRRTSFTPQALEILNAHFEKNTHPSGQEMTEIAEKLNCDREVVRVWFCNKRQALK [Y38C] gave an abundance fitness of 0.023 ± 0.074. With KRRTSFTPQALEILNAHFEKNTHPSGQEMTEIAEKLNNDREVVRVWFCNKRQALK [Y38N] the abundance fitness was -0.405 ± 0.17. With KRRTSFTPQALEILNAHFEKNTHPSGQEMTEIAEKLNQDREVVRVWFCNKRQALK [Y38Q] the abundance fitness was 0.024 ± 0.073. KRRTSFTPQALEILNAHFEKNTHPSGQEMTEIAEKLNTDREVVRVWFCNKRQALK [Y38T] showed an abundance fitness of 0.072 ± 0.07. KRRTSFTPQALEILNAHFEKNTHPSGQEMTEIAEKLNPDREVVRVWFCNKRQALK [Y38P] showed an abundance fitness of -1.08 ± 0.14. With KRRTSFTPQALEILNAHFEKNTHPSGQEMTEIAEKLNRDREVVRVWFCNKRQALK [Y38R] the abundance fitness was -0.024 ± 0.05. With KRRTSFTPQALEILNAHFEKNTHPSGQEMTEIAEKLNHDREVVRVWFCNKRQALK [Y38H] the abundance fitness was -0.176 ± 0.1. In the case of KRRTSFTPQALEILNAHFEKNTHPSGQEMTEIAEKLNDDREVVRVWFCNKRQALK [Y38D], the abundance fitness is reported as -0.152 ± 0.066. KRRTSFTPQALEILNAHFEKNTHPSGQEMTEIAEKLNYCREVVRVWFCNKRQALK [D39C] showed an abundance fitness of -0.093 ± 0.085.
